{"source": "paper PMC6029366", "target": "M1R-TEV-tTA fusion protein", "data": [{"substance": "β-arrestin-TEV protease (from UniProt P32121 1-409) (natural protein)", "values": [{"measurement": "TANGO β-arrestin recruitment assay, luciferase reporter (RLU), HTLA cells treated with the muscarinic agonist carbachol", "value": 7.4, "unit": "fold"}]}]}
